Measurements published in patent US20150037829A1 (MIT, published 2015).

Molecular target: the molecule itself
Assay: gel filtration chromatography, self-association
Description: APX, fluorescent protein, or miniSOG preparations were diluted to the desired concentrations using chilled (4° C.) PBS and then allowed to incubate at room temperature for 30 min to overnight. Samples ([…]) were run on a Waters HPLC system over a Superdex 75 10/300 column (GE Healthcare) that had been pre-equilibrated in PBS, pH 7.4. Samples were run isocratically in PBS at a flow rate of 0.5 mL/min. Elution of APX was monitored at 280 nm and 405 nm (heme absorbance). Empower software (Waters) was used for analysis of elution profiles. Apparent MWs were determined against low molecular weight standards (GE). […] This estimation was applied for all proteins in FIG. 4d except wt APX, which was predominantly dimeric at 0.25 μM. The apparent MW of the monomer for wt APX was assumed to be equal to the apparent MW of mAPX at 0.25 μM.

B1: wild-type pea cytosolic ascorbate peroxidase (APX), N-terminally His6-tagged (enzyme)
chain: RGKSYPTVSPDYQKAIEKAKRKLRGFIAEKKCAPLILRLAWHSAGTFDSKTKTGGPFGTIKHQAELAHGANNGLDIAVRLLEPIKEQFPIVSYADFYQLAGVVAVEITGGPEVPFHPGREDKPEPPPEGRLPDATKGSDHLRDVFGKAMGLSDQDIVALSGGHTIGAAHKERSGFEGPWTSNPLIFDNSYFTELLTGEKDGLLQLPSDKALLTDSVFRPLVEKYAADEDVFFADYAEAHLKLSELGFAEA
modifications: heme cofactor (non-covalent)
notes: the entries describe its self-association (homodimer) in gel filtration; also called wt APX; wtAPX; not shown: N-terminal His6-tag
binding result: binds
